According to PMC3405546 (Circulation Research, 2012):

Assays:
[1] = molecular target: glutathione s-transferase (GST) tagged cyclin E (human, UniProt P24864 1-410); test: cross-linking
[2] = molecular target: the molecule itself; test: cross-linking

glutathione s-transferase (GST) tagged cyclin E, sequence (P24864 whole entry): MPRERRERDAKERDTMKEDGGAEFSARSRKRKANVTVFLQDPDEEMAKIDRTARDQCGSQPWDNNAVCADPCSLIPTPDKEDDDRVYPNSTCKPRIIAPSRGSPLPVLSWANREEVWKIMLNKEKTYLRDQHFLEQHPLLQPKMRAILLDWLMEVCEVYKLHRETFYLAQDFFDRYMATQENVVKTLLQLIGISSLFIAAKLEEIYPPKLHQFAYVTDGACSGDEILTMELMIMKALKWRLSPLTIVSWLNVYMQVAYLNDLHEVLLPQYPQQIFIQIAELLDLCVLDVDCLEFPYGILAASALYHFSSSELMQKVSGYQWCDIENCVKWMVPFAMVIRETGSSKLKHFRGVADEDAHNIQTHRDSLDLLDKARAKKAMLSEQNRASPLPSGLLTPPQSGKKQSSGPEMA

B1: Cx43^CTMK4D (Cx43 C-terminus, phospho-mimetic Ser>Asp), purified (domain or fragment, rat, UniProt P08050 236-382, looked up)
chain: VKDRVKGRSDPYHATTGPLDPSKDCGDPKYAYFNGCSSPTAPLDPMDPPGYKLVTGDRNNSSCRNYNKQASEQNWANYSAEQNRMGQAGSTISNSHAQPFDFPDDNQNAKKVAAGHELQPLAIVDQRPSSRASSRASSRPRPDDLEI
[1]
  stoichiometry N: 2 Cx43^CTMK4D per cyclin E
[2]
  stoichiometry N: 2
